Molecular target: fak1_human PTK2 (UniProt Q05397)
Sequence (Q05397 whole entry, looked up): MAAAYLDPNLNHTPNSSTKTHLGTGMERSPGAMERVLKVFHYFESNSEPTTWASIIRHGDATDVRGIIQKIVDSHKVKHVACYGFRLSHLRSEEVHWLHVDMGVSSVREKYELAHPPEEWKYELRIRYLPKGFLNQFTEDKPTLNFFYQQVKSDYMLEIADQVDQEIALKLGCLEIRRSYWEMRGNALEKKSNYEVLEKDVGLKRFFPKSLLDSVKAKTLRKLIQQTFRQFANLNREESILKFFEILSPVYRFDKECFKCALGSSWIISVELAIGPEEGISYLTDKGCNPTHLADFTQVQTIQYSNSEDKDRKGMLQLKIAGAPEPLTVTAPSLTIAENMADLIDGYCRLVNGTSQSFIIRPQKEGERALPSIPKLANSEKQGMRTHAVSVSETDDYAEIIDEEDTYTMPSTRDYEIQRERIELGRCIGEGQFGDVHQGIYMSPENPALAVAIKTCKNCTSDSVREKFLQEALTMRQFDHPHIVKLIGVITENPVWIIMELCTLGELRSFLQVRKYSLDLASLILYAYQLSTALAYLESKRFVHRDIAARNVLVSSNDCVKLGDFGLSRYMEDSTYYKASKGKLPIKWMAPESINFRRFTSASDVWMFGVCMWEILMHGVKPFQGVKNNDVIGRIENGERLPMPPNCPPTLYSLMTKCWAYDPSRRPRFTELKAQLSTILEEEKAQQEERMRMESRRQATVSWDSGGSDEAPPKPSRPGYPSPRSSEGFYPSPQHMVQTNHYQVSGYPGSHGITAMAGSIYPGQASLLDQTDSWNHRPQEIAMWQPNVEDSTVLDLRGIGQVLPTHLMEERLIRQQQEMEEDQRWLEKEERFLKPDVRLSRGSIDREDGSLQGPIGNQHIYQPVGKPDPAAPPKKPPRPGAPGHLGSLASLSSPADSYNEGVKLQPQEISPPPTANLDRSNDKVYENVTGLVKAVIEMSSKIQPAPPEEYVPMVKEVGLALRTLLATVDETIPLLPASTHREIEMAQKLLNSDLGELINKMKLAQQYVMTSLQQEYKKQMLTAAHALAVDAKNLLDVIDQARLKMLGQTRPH

| Substance | effect of a mutation on the interaction |
| --- | --- |
| Talin-1 (Gallus gallus (Chicken)), P54939 W359A | disrupting interaction |
| Talin-1 (Gallus gallus (Chicken)), P54939 A360E | disrupting interaction |

Reference: IntAct's records for PubMed 22270917
